Experimental data from US20090149389A1 (PURDUE RESEARCH FOUNDATION, published 2009).

Columns and labels:
Test in all cases: cell-based or functional assay
Pim-1 (h) = Pim-1 (h) (human (h), UniProt P11309 1-313)
PKA (h) = PKA (h) (human (h), UniProt P17612 1-351)
CaMKI (h) = CaMKI (h) (human (h), UniProt Q14012 1-370, limits assumed)
AMPK (r) = AMPK (r) (rat (r), UniProt Q09137 1-552, limits assumed)
CK2 (h) = CK2 (h) (human (h), UniProt P68400 1-391)
PKCδ (h) = PKCδ (h) (human (h), UniProt Q05655 1-676)
MEKI (h) = MEKI (h) (human (h), UniProt Q02750 1-393)
PKG1β (h) = target: T1, PKG1β (h) (human (h), UniProt Q13976-2 1-686)
T1 sequence (looked up): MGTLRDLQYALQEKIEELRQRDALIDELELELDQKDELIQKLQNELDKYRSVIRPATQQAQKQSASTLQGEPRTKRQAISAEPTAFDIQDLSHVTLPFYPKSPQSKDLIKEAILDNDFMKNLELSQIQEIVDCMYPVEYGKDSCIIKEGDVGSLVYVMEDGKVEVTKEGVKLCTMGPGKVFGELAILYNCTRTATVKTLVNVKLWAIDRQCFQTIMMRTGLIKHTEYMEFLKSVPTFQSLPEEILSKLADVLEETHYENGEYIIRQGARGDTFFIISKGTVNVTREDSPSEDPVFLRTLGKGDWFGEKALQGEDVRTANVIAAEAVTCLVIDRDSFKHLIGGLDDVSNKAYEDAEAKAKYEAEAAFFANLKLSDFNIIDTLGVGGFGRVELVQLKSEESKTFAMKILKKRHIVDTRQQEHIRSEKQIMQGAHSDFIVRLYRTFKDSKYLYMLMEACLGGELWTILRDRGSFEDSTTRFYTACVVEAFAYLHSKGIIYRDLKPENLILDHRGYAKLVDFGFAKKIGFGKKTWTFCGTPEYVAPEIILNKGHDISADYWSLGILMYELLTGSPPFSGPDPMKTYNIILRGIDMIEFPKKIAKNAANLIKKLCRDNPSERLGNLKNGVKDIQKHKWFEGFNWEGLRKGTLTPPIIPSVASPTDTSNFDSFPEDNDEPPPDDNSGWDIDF

Flt3 (h) = target: T2, Flt3 (h) (human (h), UniProt P36888 564-993, limits assumed)
T2 sequence (looked up): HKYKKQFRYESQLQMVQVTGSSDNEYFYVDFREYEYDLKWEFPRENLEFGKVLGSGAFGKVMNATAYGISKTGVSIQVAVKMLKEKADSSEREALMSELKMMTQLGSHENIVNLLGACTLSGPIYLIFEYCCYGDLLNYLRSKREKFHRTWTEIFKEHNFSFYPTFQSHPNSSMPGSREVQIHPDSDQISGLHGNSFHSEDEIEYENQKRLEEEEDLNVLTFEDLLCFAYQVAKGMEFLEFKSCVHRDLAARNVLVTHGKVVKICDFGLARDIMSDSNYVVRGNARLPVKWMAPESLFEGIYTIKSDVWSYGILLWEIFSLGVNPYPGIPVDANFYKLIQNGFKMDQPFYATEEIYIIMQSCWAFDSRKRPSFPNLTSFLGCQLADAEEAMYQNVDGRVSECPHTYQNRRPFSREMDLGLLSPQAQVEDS

CDKI/cyclinB (h) = CDKI/cyclinB (h) (human (h), UniProt P06493 1-297)
Tie2 (h) = Tie2 (h) (human (h), UniProt Q02763 771-1124, limits assumed)
Abl (h) = Abl (h) (human (h), UniProt P00519 27-1130, limits assumed)
BTK (h) = BTK (h) (human (h), UniProt Q06187 1-659)
PKB β (h) = PKB β (h) (human (h), UniProt P31751 1-481, limits assumed)
CKIB (h) = CKIB (h) (human (h))
Rsk2 (h) = Rsk2 (h) (human (h), UniProt P51812 1-740)
Lck (h) = Lck (h) (human (h), UniProt P06239 1-509)
Met (h) = Met (h) (human (h), UniProt P08581 974-1390, limits assumed)
PDGFRβ (h) = PDGFRβ (h) (human (h), UniProt P09619 558-1106, limits assumed)
cKit (h) = cKit (h) (human (h), UniProt P10721 544-976, limits assumed)
L1MK1 (h) = L1MK1 (h) (human (h), UniProt P53667 285-638, limits assumed)
EphA2 (h) = target: T3, EphA2 (h) (human (h), UniProt P29317 591-976, limits assumed)
T3 sequence (looked up): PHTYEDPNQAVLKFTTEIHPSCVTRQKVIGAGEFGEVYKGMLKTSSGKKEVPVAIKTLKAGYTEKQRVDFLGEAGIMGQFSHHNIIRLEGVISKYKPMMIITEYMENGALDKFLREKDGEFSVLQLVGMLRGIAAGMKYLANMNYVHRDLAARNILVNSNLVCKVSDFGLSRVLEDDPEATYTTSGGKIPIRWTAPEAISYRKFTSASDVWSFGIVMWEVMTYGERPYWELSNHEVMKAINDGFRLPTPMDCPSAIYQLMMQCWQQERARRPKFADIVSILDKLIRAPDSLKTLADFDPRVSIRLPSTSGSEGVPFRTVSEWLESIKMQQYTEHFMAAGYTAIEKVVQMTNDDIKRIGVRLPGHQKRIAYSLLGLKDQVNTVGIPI

Sequence of cKit (h) (P10721 544-976 limits assumed): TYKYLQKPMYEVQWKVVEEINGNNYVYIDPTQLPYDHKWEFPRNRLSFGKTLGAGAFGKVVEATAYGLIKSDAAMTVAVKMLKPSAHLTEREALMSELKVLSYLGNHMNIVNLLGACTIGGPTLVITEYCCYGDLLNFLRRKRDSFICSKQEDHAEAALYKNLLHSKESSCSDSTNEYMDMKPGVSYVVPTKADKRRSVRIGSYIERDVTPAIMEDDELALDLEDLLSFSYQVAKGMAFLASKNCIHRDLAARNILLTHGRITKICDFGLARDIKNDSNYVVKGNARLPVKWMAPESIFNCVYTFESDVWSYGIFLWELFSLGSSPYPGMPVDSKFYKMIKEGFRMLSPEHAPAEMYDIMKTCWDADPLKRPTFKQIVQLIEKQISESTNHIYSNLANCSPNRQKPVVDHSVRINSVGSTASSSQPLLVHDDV
Sequence of BTK (h) (Q06187 whole entry): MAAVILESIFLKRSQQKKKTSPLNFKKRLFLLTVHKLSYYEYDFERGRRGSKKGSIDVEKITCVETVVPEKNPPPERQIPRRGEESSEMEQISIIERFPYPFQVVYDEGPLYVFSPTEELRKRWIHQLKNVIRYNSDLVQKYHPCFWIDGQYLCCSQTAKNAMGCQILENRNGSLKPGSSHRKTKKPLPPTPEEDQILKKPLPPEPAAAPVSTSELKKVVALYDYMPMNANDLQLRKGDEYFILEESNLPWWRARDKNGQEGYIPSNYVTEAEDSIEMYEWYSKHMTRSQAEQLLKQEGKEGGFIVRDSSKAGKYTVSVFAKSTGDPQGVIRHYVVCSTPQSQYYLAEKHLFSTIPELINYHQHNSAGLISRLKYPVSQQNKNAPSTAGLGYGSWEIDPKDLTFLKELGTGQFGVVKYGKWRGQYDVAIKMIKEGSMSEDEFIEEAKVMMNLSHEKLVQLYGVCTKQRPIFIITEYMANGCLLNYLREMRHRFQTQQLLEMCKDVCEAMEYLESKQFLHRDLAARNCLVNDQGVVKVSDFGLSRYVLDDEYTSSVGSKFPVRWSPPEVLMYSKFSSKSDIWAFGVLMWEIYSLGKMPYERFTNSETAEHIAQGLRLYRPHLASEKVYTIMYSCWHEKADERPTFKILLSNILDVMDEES
Sequence of PKCδ (h) (Q05655 whole entry, stated change not applied): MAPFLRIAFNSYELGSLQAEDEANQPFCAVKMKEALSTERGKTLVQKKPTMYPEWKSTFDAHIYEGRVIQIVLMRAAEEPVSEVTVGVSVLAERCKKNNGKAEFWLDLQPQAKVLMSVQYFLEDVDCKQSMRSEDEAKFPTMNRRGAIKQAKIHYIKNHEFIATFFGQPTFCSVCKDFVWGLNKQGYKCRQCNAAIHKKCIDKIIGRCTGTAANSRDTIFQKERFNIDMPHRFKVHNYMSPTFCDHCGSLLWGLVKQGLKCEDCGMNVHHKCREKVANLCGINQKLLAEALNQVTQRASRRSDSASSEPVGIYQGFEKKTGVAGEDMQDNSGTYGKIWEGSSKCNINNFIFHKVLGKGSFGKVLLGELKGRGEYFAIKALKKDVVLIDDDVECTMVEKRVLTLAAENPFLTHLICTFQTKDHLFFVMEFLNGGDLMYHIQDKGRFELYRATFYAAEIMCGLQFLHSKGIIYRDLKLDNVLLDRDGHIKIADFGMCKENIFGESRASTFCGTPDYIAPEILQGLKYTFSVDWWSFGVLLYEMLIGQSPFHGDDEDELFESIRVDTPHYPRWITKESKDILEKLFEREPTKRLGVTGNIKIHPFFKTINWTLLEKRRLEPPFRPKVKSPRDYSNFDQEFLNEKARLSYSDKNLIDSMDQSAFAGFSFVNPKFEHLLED
Sequence of Abl (h) (P00519 27-1130 limits assumed): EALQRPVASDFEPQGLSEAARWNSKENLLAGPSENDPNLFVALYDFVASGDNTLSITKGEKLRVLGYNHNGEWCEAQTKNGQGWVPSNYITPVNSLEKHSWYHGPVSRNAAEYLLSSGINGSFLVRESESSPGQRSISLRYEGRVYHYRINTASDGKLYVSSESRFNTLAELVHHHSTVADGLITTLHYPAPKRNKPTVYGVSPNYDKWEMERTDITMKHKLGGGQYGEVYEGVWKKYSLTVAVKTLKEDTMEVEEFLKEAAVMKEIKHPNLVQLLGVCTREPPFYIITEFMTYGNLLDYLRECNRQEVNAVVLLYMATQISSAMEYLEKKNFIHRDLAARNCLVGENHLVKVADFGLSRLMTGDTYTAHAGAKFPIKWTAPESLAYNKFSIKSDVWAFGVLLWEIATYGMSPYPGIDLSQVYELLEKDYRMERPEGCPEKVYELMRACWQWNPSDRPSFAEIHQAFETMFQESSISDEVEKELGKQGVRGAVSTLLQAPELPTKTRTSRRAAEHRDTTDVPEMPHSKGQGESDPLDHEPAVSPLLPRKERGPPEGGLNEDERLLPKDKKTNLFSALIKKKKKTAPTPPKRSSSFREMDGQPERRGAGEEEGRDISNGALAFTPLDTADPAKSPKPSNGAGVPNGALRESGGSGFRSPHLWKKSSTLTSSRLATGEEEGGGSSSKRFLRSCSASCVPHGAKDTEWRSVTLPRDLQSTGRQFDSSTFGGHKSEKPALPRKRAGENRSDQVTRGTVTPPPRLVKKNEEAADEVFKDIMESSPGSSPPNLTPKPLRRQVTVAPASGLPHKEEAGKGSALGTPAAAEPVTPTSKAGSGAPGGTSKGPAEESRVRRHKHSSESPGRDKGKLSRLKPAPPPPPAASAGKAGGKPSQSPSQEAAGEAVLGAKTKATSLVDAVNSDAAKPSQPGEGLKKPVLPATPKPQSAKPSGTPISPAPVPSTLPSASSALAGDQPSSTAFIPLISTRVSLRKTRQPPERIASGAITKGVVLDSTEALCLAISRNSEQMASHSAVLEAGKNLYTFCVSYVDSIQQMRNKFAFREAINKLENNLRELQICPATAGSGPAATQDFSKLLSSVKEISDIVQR
Sequence of PKB β (h) (P31751 whole entry): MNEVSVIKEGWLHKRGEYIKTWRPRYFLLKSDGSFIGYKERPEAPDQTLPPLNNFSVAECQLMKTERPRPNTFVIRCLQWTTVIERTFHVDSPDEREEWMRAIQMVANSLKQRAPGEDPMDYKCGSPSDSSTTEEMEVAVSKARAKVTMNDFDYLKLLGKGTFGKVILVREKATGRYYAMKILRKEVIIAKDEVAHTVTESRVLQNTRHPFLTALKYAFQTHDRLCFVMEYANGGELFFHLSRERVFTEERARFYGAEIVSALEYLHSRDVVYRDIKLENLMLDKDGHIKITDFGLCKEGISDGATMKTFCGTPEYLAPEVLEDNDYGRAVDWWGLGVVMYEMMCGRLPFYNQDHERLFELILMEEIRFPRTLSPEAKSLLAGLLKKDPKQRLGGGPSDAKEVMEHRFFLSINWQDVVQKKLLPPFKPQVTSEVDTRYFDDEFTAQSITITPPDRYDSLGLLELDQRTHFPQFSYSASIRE
Sequence of L1MK1 (h) (P53667 285-638 limits assumed): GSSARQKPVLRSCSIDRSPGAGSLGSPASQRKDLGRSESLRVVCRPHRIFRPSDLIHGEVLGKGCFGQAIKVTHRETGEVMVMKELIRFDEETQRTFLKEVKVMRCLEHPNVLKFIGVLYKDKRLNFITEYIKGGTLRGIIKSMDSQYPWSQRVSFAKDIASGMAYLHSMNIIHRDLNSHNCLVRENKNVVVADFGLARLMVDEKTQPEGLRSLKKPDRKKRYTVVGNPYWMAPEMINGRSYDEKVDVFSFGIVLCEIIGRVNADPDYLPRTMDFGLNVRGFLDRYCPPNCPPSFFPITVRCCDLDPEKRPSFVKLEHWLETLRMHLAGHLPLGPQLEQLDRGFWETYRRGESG
Sequence of AMPK (r) (Q09137 whole entry): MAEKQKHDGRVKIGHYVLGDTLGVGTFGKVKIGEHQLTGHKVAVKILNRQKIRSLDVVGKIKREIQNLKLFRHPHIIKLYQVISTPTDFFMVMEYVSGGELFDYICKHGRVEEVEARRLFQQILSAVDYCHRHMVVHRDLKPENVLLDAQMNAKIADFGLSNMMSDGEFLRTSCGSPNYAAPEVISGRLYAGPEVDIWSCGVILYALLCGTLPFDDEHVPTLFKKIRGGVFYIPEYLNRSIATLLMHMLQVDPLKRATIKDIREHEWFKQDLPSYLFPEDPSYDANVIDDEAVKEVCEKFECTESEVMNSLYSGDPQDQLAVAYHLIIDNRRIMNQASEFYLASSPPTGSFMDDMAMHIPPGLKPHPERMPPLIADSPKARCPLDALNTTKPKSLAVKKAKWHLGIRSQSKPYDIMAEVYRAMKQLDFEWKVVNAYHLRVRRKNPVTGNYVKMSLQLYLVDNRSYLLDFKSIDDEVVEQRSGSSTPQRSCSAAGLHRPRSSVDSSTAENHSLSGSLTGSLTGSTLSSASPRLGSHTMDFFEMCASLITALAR
Sequence of Pim-1 (h) (P11309 whole entry): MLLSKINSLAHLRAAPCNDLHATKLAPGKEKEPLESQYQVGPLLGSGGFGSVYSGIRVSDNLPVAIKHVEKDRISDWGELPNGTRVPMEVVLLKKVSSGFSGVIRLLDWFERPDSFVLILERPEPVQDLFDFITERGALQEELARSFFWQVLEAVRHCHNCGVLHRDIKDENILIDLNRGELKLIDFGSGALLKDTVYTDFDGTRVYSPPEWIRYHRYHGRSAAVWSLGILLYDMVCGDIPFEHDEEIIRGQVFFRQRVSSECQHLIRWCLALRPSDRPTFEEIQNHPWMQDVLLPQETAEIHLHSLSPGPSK
Sequence of Tie2 (h) (Q02763 771-1124 limits assumed): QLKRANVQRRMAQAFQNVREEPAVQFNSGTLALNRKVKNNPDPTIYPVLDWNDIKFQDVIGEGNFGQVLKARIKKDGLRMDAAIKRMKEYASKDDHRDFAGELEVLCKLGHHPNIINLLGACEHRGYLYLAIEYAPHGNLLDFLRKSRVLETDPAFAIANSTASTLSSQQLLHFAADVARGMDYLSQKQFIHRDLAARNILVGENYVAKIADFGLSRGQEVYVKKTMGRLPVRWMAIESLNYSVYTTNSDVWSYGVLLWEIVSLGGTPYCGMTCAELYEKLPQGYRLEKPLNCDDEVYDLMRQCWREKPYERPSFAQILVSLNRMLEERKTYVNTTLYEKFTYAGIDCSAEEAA

B1: WLRRIKAWLRRIKALNRQLGVAA (peptide)
peptide: WLRRIKAWLRRIKALNRQLGVAA
Profile-1 @ = 30 µm (kinase profiler assay) (Pim-1 (h)): 5 | Profile-1 @ = 30 µm (kinase profiler assay) (PKA (h)): 80 | Profile-1 @ = 30 µm (kinase profiler assay) (CaMKI (h)): 9 | Profile-1 @ = 30 µm (kinase profiler assay) (AMPK (r)): 36 | Profile-1 @ = 30 µm (kinase profiler assay) (CK2 (h)): 114 | Profile-1 @ = 30 µm (kinase profiler assay) (PKCδ (h)): 11 | Profile-1 @ = 30 µm (kinase profiler assay) (MEKI (h)): 14 | Profile-1 @ = 30 µm (kinase profiler assay) (PKG1β (h)): 15 | Profile-1 @ = 30 µm (kinase profiler assay) (Flt3 (h)): 38 | Profile-1 @ = 30 µm (kinase profiler assay) (CDKI/cyclinB (h)): 17 | Profile-1 @ = 30 µm (kinase profiler assay) (Tie2 (h)): 17 | Profile-1 @ = 30 µm (kinase profiler assay) (Abl (h)): 24 | Profile-1 @ = 30 µm (kinase profiler assay) (BTK (h)): 5 | Profile-1 @ = 30 µm (kinase profiler assay) (PKB β (h)): 18 | Profile-1 @ = 30 µm (kinase profiler assay) (CKIB (h)): 52 | Profile-1 @ = 30 µm (kinase profiler assay) (Rsk2 (h)): 14 | Profile-1 @ = 30 µm (kinase profiler assay) (Lck (h)): 130 | Profile-1 @ = 30 µm (kinase profiler assay) (Met (h)): 30 | Profile-1 @ = 30 µm (kinase profiler assay) (PDGFRβ (h)): 42 | Profile-1 @ = 30 µm (kinase profiler assay) (cKit (h)): 23 | Profile-1 @ = 30 µm (kinase profiler assay) (L1MK1 (h)): 89 | Profile-1 @ = 30 µm (kinase profiler assay) (EphA2 (h)): 38
